Source: patent publication US20260092093A1 (TJ BIOPHARMA SHANGHAI, published 2026)

T1: hIL-18Rα ECD-Fc fusion protein (human, UniProt Q13478 22-329)
T1 construct: extracellular domain; captured on Protein A sensor
T1 sequence (looked up): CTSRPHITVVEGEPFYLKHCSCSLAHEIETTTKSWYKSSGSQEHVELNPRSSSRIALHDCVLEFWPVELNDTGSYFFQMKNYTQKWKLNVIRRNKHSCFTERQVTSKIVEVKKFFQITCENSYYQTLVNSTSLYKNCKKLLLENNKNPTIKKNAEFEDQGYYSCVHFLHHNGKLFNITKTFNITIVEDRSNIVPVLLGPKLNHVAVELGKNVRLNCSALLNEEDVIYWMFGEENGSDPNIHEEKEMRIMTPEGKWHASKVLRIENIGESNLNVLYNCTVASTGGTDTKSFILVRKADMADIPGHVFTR

T2: recombinant hIL-18Rα extracellular domain (human, UniProt Q13478 22-329, biotin label (selection) or fluorescent probe (single-clone FACS), sites not given)
T2 construct: extracellular domain; also called hIL-18Rα ECD; hIL-18Rα-ECD
T2 sequence (looked up): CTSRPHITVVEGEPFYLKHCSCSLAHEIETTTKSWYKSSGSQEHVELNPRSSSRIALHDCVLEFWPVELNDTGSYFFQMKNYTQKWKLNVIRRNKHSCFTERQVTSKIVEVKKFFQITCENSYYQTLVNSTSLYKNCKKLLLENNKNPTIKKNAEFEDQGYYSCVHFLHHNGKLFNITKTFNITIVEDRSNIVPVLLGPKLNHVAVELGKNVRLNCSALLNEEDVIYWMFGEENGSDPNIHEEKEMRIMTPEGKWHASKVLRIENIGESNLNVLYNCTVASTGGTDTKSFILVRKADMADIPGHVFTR


Tests used:
[1] = target: T1, hIL-18Rα ECD-Fc fusion protein; test: BLI (Octet RED96), hIL-18Rα ECD-Fc on Protein A sensor
Experimental: The affinities of IL-18 variant polypeptides for hIL-18Rα were assessed by Biolayer Interferometry (BLI) on Octet RED96 using Protein A sensor coated with hIL-18Rα ECD-Fc fusion protein, and WT hIL-18 was used as a control.

[2] = target: T2, recombinant hIL-18Rα extracellular …; test: single-clone FACS, yeast display, 10 nM labelled hIL-18Rα ECD
Procedure, shortened: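 Yeast clones displaying IL-18 variants (screening rounds 4 and 5), at equal density, incubated with 10 nM fluorescently labelled hIL-18Rα ECD, then washed. Fraction of fluorescence-positive binding cells per clone measured by flow cytometry.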

Binder	Kd [1]	Response (nm) [1]	koff [1]	kon [1]	% of fluorescence positive cells [2]
IL-18 variant polypeptide M15 (ligand) YFPKLRSKLSVIRNLNDQVLFIDQGNRPLFEDMTDSDCRDNAPRTIFIISMYKSSYTRGMAVTISVKCEKISTLSCENKIISFKEMNPPDGIKDTKSDIIFFQRSVPGHDNKMQFESSSYEGYFLACEKERDLFKLILKKEDELGDRSIMFTVQNED	36.7 nM	0.122 nm	0.0183 s⁻¹	499000 M⁻¹ s⁻¹	95%
IL-18 variant polypeptide M27 (ligand) YFPKLRSKLSVIRNLNDQVLFIDQGNRPLFEDMTDSDCRDNAPRTIFIISMYKHSYTRGMAVTISVKCEKISTLSCENKIISFKEMNPPDVIKDTKSDIIFFQYSVPGHDNKMQFESSSYEGYFLACEKERDLFKLILKKEDELGDRSIMFTVQNED	45.9 nM	0.0836 nm	0.00756 s⁻¹	165000 M⁻¹ s⁻¹	77.7%
IL-18 variant polypeptide M26 (ligand) YFPKLRSKLSVIRNLNDQVLFIDQGNRPLFEDMTDSDCRDNAPRTIFIISMYKHSDKRGMAVTISVKCEKISTLSCENKIISFKEMNPPDVIKDTKSDIIFFQYSVPGHDNKMQFESSSYEGYFLACEKERDLFKLILKKEDELGDRSIMFTVQNED	57.1 nM	0.0917 nm	0.0119 s⁻¹	207000 M⁻¹ s⁻¹	96.7%
IL-18 variant polypeptide M20 (ligand) YFPKLRSKLSVIRNLNDQVLFIDQGNRPLFEDMTDSDCRDNAPRTIFIISMYKSSRSRGMAVTISVKCEKISTLSCENKIISFKEMNPPDGIKDTKSDIIFFQSSVPGHDNKMQFESSSYEGYFLACEKERDLFKLILKKEDELGDRSIMFTVQNED	35.1 nM	0.136 nm	0.0167 s⁻¹	476000 M⁻¹ s⁻¹	86.2%
IL-18 variant polypeptide M25 (ligand) YFPKLRSKLSVIRNLNDQVLFIDQGNRPLFEDMTDSDCRDNAPRTIFIISMYKLSTTRGMAVTISVKCEKISTLSCENKIISFKEMNPPDRIKDTKSDIIFFQRSVPGHDNKMQFESSSYEGYFLACEKERDLFKLILKKEDELGDRSIMFTVQNED	44.1 nM	0.0798 nm	0.0256 s⁻¹	581000 M⁻¹ s⁻¹	1.41%
IL-18 variant polypeptide M29 (ligand) YFPKLMSKLSVIRNLNDQVLFIDQGNRPLFEDMTDSDCRDNAPRTIFIISMYKFSDRRGMAVTISVKCEKISTLSCENKIISFKEMNPPDPIKDTKSDIIFFQRSVPGHDNKMQFESSSYEGYFLACEKERDLFKLILKKEDELGDRSIMFTVQNED	83.9 nM	0.0323 nm	0.0612 s⁻¹	730000 M⁻¹ s⁻¹	0.18%
IL-18 variant polypeptide M23 (ligand) YFPKLRSKLSVIRNLNDQVLFIDQGNRPLFEDMTDSDCRDNAPRTIFIISMYKYSTRRGMAVTISVKCEKISTLSCENKIISFKEMNPPDNIKDTKSDIIFFQRSVPGHDNKMQFESSSYEGYFLACEKERDLFKLILKKEDELGDRSIMFTVQNED	368 nM	0.0522 nm	0.0302 s⁻¹	82300 M⁻¹ s⁻¹	2.36%
IL-18 variant polypeptide M24 (ligand) YFPKLRSKLSVIRNLNDQVLFIDQGNRPLFEDMTDSDCRDNAPRTIFIISMYKYSTSRGMAVTISVKCEKISTLSCENKIISFKEMNPPDNIKDTKSDIIFFQRSVPGHDNKMQFESSSYEGYFLACEKERDLFKLILKKEDELGDRSIMFTVQNED	930 nM	0.0434 nm	0.0451 s⁻¹	48500 M⁻¹ s⁻¹	1.36%
IL-18 variant polypeptide M28 (ligand) YFPKLASKLSVIRNLNDQVLFIDQGNRPLFEDMTDSDCRDNAPRTIFIISMYKWSGGRGMAVTISVKCEKISTLSCENKIISFKEMNPPDVIKDTKSDIIFFQYSVPGHDNKMQFESSSYEGYFLACEKERDLFKLILKKEDELGDRSIMFTVQNED	30.4 nM	0.178 nm	0.00966 s⁻¹	318000 M⁻¹ s⁻¹	83.4%
IL-18 variant polypeptide M17 (ligand) YFPKLRSKLSVIRNLNDQVLFIDQGNRPLFEDMTDSDCRDNAPRTIFIISMYKLSTARGMAVTISVKCEKISTLSCENKIISFKEMNPPDGIKDTKSDIIFFQRSVPGHDNKMQFESSSYEGYFLACEKERDLFKLILKKEDELGDRSIMFTVQNED	67.7 nM	0.0784 nm	0.0231 s⁻¹	340000 M⁻¹ s⁻¹	87.1%
IL-18 variant polypeptide M16 (ligand) YFPKLRSKLSVIRNLNDQVLFIDQGNRPLFEDMTDSDCRDNAPRTIFIISMYKSSRNRGMAVTISVKCEKISTLSCENKIISFKEMNPPDGIKDTKSDIIFFQSSVPGHDNKMQFESSSYEGYFLACEKERDLFKLILKKEDELGDRSIMFTVQNED	42.6 nM	0.111 nm	0.0177 s⁻¹	415000 M⁻¹ s⁻¹	88.5%
IL-18 variant polypeptide M19 (ligand) YFPKLKSKLSVIRNLNDQVLFIDQGNRPLFEDMTDSDCRDNAPRTIFIISMYKHSEQRGMAVTISVKCEKISTLSCENKIISFKEMNPPDAIKDTKSDIIFFQRSVPGHDNKMQFESSSYEGYFLACEKERDLFKLILKKEDELGDRSIMFTVQNED	112 nM	0.025 nm	0.0554 s⁻¹	495000 M⁻¹ s⁻¹	90%
IL-18 variant polypeptide M22 (ligand) YFPKLRSKLSVIRNLNDQVLFIDQGNRPLFEDMTDSDCRDNAPRTIFIISMYKYSRGRGMAVTISVKCEKISTLSCENKIISFKEMNPPDKIKDTKSDIIFFQSSVPGHDNKMQFESSSYEGYFLACEKERDLFKLILKKEDELGDRSIMFTVQNED	4080 nM	0.0592 nm	0.0398 s⁻¹	9740 M⁻¹ s⁻¹	4.83%
IL-18 variant polypeptide M30 (ligand) YFPKLLSKLSVIRNLNDQVLFIDQGNRPLFEDMTDSDCRDNAPRTIFIISMYKHSTVRGMAVTISVKCEKISTLSCENKIISFKEMNPPDSIKDTKSDIIFFQRSVPGHDNKMQFESSSYEGYFLACEKERDLFKLILKKEDELGDRSIMFTVQNED	30.2 nM	0.0275 nm	0.0389 s⁻¹	1.29e+06 M⁻¹ s⁻¹	0.46%
IL-18 variant polypeptide M21 (ligand) YFPKLRSKLSVIRNLNDQVLFIDQGNRPLFEDMTDSDCRDNAPRTIFIISMYKSSSTRGMAVTISVKCEKISTLSCENKIISFKEMNPPDGIKDTKSDIIFFQSSVPGHDNKMQFESSSYEGYFLACEKERDLFKLILKKEDELGDRSIMFTVQNED	64.9 nM	0.0791 nm	0.0221 s⁻¹	340000 M⁻¹ s⁻¹	89.9%
IL-18 variant polypeptide M18 (ligand) YFPKLRSKLSVIRNLNDQVLFIDQGNRPLFEDMTDSDCRDNAPRTIFIISMYKSSRRRGMAVTISVKCEKISTLSCENKIISFKEMNPPDGIKDTKSDIIFFQSSVPGHDNKMQFESSSYEGYFLACEKERDLFKLILKKEDELGDRSIMFTVQNED	33.1 nM	0.173 nm	0.0134 s⁻¹	404000 M⁻¹ s⁻¹	80.9%
